Measured values taken from PMC7276988, “Cryo-EM Structure of the Fork Protection Complex Bound to CMG at a Replication Fork” (Molecular Cell, 2020).

B1: Mcm7 (natural protein, S. cerevisiae)
chain: MSAALPSIQLPVDYNNLFNEITDFLVTFKQDTLSSDATRNENEDENLDAENIEQHLLEKGPKYMAMLQKVANRELNSVIIDLDDILQYQNEKFLQGTQADDLVSAIQQNANHFTELFCRAIDNNMPLPTKEIDYKDDVLDVILNQRRLRNERMLSDRTNEIRSENLMDTTMDPPSSMNDALREVVEDETELFPPNLTRRYFLYFKPLSQNCARRYRKKAISSKPLSVRQIKGDFLGQLITVRGIITRVSDVKPAVEVIAYTCDQCGYEVFQEVNSRTFTPLSECTSEECSQNQTKGQLFMSTRASKFSAFQECKIQELSQQVPVGHIPRSLNIHVNGTLVRSLSPGDIVDVTGIFLPAPYTGFKALKAGLLTETYLEAQFVRQHKKKFASFSLTSDVEERVMELITSGDVYNRLAKSIAPEIYGNLDVKKALLLLLVGGVDKRVGDGMKIRGDINVCLMGDPGVAKSQLLKAICKISPRGVYTTGKGSSGVGLTAAVMKDPVTDEMILEGGALVLADNGICCIDEFDKMDESDRTAIHEVMEQQTISISKAGINTTLNARTSILAAANPLYGRYNPRLSPLDNINLPAALLSRFDILFLMLDIPSRDDDEKLAEHVTYVHMHNKQPDLDFTPVEPSKMREYIAYAKTKRPVMSEAVNDYVVQAYIRLRQDSKREMDSKFSFGQATPRTLLGIIRLSQALAKLRLADMVDIDDVEEALRLVRVSKESLYQETNKSKEDESPTTKIFTIIKKMLQETGKNTLSYENIVKTVRLRGFTMLQLSNCIQEYSYLNVWHLINEGNTLKFVDDGTMDTDQEDSLVSTPKLAPQTTASANVSAQDSDIDLQDA
notes: Mcm7, S. cerevisiae, subunit of CMG; source: S. cerevisiae, overexpressed, purified as part of CMG

Experiments:
Assay in all cases: cryo-EM structure; reconstituted from purified CMG, fork DNA, Csm3/Tof1, Ctf4, Mrc1 with AMP-PNP; glycerol gradient fixation (glutaraldehyde and BS3)
[1] = target: T1, Tof1 (S. cerevisiae, UniProt P53840 1-1238, phosphorylated (sites not given)); conditions: both partners purified
T1 construct: Tof1, S. cerevisiae; residues 13-781 are resolved in the map; The Tof1 chain of m2; source: S. cerevisiae, overexpressed with Csm3, purified as Csm3/Tof1; in XL-MS part of the co-expressed, co-purified complex (yJY74)
T1 sequence: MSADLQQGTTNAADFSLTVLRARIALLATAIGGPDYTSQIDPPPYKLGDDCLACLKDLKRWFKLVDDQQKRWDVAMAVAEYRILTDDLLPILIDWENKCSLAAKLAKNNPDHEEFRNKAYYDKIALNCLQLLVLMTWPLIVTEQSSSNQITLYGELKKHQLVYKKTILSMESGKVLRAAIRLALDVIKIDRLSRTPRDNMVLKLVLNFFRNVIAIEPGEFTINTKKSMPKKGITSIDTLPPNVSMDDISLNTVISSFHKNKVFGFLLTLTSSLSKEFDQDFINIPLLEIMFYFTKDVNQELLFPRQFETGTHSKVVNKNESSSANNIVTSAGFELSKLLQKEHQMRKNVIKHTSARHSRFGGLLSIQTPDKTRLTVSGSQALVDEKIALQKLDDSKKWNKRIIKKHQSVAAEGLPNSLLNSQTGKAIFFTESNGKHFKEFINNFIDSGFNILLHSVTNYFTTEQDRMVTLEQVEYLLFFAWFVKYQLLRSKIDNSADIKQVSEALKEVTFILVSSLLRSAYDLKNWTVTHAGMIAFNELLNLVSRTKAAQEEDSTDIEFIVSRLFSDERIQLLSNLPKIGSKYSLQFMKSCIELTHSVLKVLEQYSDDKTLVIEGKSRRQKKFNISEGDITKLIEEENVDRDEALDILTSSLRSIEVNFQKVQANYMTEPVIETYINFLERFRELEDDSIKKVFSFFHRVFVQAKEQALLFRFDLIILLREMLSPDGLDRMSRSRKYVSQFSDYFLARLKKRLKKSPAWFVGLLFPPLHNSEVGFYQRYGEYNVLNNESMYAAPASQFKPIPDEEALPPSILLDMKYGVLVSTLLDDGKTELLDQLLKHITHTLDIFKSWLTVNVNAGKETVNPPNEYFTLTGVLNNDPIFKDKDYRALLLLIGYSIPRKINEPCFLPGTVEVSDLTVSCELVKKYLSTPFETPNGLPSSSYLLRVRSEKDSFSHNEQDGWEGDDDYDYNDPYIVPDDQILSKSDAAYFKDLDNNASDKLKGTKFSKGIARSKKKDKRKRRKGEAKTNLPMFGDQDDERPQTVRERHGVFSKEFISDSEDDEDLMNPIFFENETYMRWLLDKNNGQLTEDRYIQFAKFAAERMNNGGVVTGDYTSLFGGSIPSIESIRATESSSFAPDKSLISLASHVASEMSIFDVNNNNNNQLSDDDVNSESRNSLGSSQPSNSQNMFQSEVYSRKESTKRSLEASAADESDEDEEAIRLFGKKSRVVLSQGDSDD

[2] = target: the molecule itself
[3] = target: B1; conditions: both partners purified

Q: Does B1 bind [1]?
A: Result: binds

B2: Ctf4 (natural protein, S. cerevisiae)
chain: MVSVIDKLVFDFGGKTLVSLAPDNNTLCVANKNGLTKILKTNNPEEEPETLDSSKLVSSIKCYSNSHFLMTTMQGDALRYNIDSSQEELLARFALPLRDCCVIHSGKMAVFGGDDLELILLELDDETHKKHAIKIDEQVSQISYNSQMNILAVSMINGKVQIFSLTSTIPNKVHELNDYIVANSYDDTHRDKILSNMMDDIDKDNDNDLSETADPDENNVADPEFCAANRICTRVAWHPKGLHFALPCADDTVKIFSIKGYSLQKTLSTNLSSTKAHFIDLQFDPLRGTYIAAVDLNNKLTVWNWETSEIHYTREFKRKITNIAWKIQADSKTLDLVLGTWSGSIAIVQNLAESVVSNIPDQSVAESSTKHGLFVDSESDLENLEGNDDINKSDKLFSDITQEANAEDVFTQTHDGPSGLSEKRKYNFEDEEDFIDDDDGAGYISGKKPHNEHSYSRVHKTHSFPISLANTGKFRYMPFSPAGTPFGFTDRRYLTMNEVGYVSTVKNSEQYSITVSFFDVGRFREYHFEDLFGYDLCFLNEKGTLFGQSKTGQIQYRPHDSIHSNWTKIIPLQAGERITSVAATPVRVIVGTSLGYFRSFNQFGVPFAVEKTSPIVALTAQNYRVFSVHYSQFHGLSYSLSELGTSSKRYYKRECPLPMSLPNINSDMKKDANLDYYNFNPMGIKSLFFSSYGDPCIFGSDNTLLLLSKWRSPEESKWLPILDSNMEIWKMSGGKETTDIHVWPLALAYDTLNCILVKGKHIWPEFPLPLPSEMEIRMPVFVKSKLLEENKAILNKKNEIGADTEAEEGEEDKEIQIPVSMAAEEEYLRSKVLSELLTDTLENDGEMYGNENEVLAALNGAYDKALLRLFASACSDQNVEKALSLAHELKQDRALTAAVKISERAELPSLVKKINNIREARYEQQLK
notes: Ctf4, S. cerevisiae; only the C-terminal part is resolved in the map; Homotrimer; also called Ctf4 trimer; Ctf4_(3); source: purified as previously described (Yeeles et al., 2015); also co-expressed with CMG, Csm3/Tof1 and Mrc1 in S. cerevisiae yJY74 and co-purified
Q: How did the “stoichiometry N” value [2] turn out when B2 was run?
A: The value was 3.

B3: Csm3 (natural protein, S. cerevisiae)
chain: MDQDFDSLLLGFNDSDSVQKDPTVPNGLDGSVVDPTIADPTAITARKRRPQVKLTAEKLLSDKGLPYVLKNAHKRIRISSKKNSYDNLSNIIQFYQLWAHELFPKAKFKDFMKICQTVGKTDPVLREYRVSLFRDEMGMSFDVGTRETGQDLERQSPMVEEHVTSAEERPIVADSFAQDKRNVNNVDYDNDEDDDIYHLSYRNRRGRVLDERGNNETVLNNVVPPKEDLDALLKTFRVQGPVGLEENEKKLLLGWLDAHRKMEKGSMTEEDVQLIQSLEEWEMNDIEGQHTHYDLLPGGDEFGVDQDELDAMKEMGF
notes: Csm3, S. cerevisiae; residues 46-139 are resolved in the map; The Csm3 chain of m2; source: S. cerevisiae, overexpressed with Tof1, purified as Csm3/Tof1; in XL-MS part of the co-expressed, co-purified complex (yJY74)
Q: Does B3 bind [3]?
A: Result: binds
